{"source": "paper doi:10.1101/2020.04.15.043133", "key": {"[1]": {"biological_target": "CR3 headpiece fragment (integrin αMβ2 headpiece) (human) (UniProt P11215)", "test": "SEC"}, "[2]": {"biological_target": "iC3b biotinylated on the thioester cysteine (UniProt P01024)", "test": "SPR"}, "[3]": {"biological_target": "C3d (human) (UniProt P01024)", "test": "SPR"}, "[4]": {"biological_target": "iC3b biotinylated on the thioester cysteine (UniProt P01024)", "test": "SPR", "remark": "listed apart in the source"}}, "note": "Like-named read-outs stand apart in the source and are kept apart here.", "data": [{"substance": "CR3 headpiece fragment (integrin αMβ2 headpiece) (from UniProt P11215 17-773; P05107 23-504) (receptor)", "values": [{"measurement": "stoichiometry N", "setting": "[1]", "result": 2}, {"measurement": "Kd", "setting": "[2]", "result": 30, "unit": "nM"}, {"measurement": "Kd", "setting": "[3]", "result": 515, "unit": "nM"}, {"measurement": "Kd", "setting": "[4]", "result": 6.2, "unit": "nM"}, {"measurement": "fold lower koff than in the Mg2+ buffer", "setting": "[4]", "result": 30, "unit": "fold"}]}]}
